From US8821943B2, “Methods and compositions for targeted delivery of therapeutic agents” (Board of Regents of the University of Nebraska, priority 2006, dated 2014)

What was measured:
[1] = Particle size, polydispersity and zeta-potential by dynamic light scattering; format: physicochemical; details: Table 6
Procedure: Nanoparticle carrier particles were formed by the methods of the preceding Example, and characterized as follows. The particle size and the zeta-potential were measured using Zeta Plus zeta-potential analyzer (Brookhaven Instruments Ltd., New York, N.Y.), which employs the dynamic light scattering technique for particle size measurement. The particle size and zeta-potential measurements were made after 1:1000 dilution of particle stock in filtered deionized water. Further, the particles were visualized using a transmission electron microscope (TEM). The carbon-coated grids were floated on a suspension droplet of plain or functionalized nanoparticles on a flexible plastic film (Parafilm, Pechiney Plastic Packaging, Neenah, Wis.) to allow the adsorption of nanoparticles onto the grid. After drying the particles, uranyl acetate was added as a negative stain to the carbon grid and allowed to react with the particles. This procedure makes the particles electron dense, allowing their visualization using an electron microscope. The particles were photographed using EM410 Phillips electron microscope (Eindhoven, The Netherlands) set at 60 kV and a magnification of 153000×.
Characterization of particles: The particle size and the zeta-potential were measured using ZetaPlus® zeta-potential analyzer, Brookhaven Instruments Ltd. (New York, N.Y.), which employs the dynamic light scattering technique for particle size measurement. The particle size and zeta-potential measurements were carried out after 1:1000 dilution of particle stock in filtered deionized water before lyophilization in filtered deionized water. The effective diameter of conjugated nanoparticles was higher than that of unconjugated nanoparticles.
Particle Size Analysis: Particle size and zeta-potential of the nanoparticles before and after conjugation following lyophilization were measured in double distilled water (100 μl of particle/1 ml of water) using dynamic light scattering (DLS). After lyophilization the plasmid loaded particles were weighed (1 mg) into glass Kimble tubes. To each tube, 1 ml of double distilled water was added and vortexed at high speed (Vortex Genie, Scientific Industries, Bohemia, N.Y.) till the particles were resuspended. The particle size and zeta potential was determined using dynamic light scattering after dilution (1:10 in double distilled water) (Brookhaven Instruments Corp., Holtsville, N.Y.). Nanoparticle size after lyophilization was 210.4±0.68 nm and zeta potential was −32.85±0.87 mV. Nanoparticle size and zeta potential was measured after conjugation with deslorelin and transferrin. Similarly, the unconjugated nanoparticles were also treated under the same conditions as with the conjugated nanoparticles (the conjugation protocol as mentioned above).
Transport studies were conducted in bovine nasal tissue. Bovine nasal tissue was obtained from freshly slaughtered cattle, and different regions (MTA, MTP, ITP) were prepared as described in Example 13. Nanoparticles coupled to deslorelin or transferring via aldehyde sulfate moieties were prepared as described in Example 3. The nanoparticle size was measured using a Zeta Plus Analyzer (Brookhaven Instruments Limited, UK). Particle size was analyzed before and after ligand conjugation in deionized filtered water.

[2] = tested on: ARPE-19 cells; test: Nanoparticle uptake by human retinal pigment epithelial cells; format: cell-based; details: 1 ml of 100 μg/ml suspension in serum free medium
Procedure: A study was performed to examine the effect of targeting moieties on biodegradable and non-biodegradable carrier particles and their uptake in ocular cells. The biodegradable and non-biodegradable targeted carrier particles of the preceding Example were used. Uptake of nanoparticles by human retinal pigment epithelial cells (ARPE-19 cell line) was quantified by measuring fluorescence in cell lysate obtained after incubation of targeted or untargeted (unconjugated) nanoparticles with ARPE-19 cell monolayers.
ARPE-19 cells were obtained from American Type Culture Collection (ATCC, Manassas, Va.). The cells were maintained in culture according to supplier's recommendation. All studies were conducted using confluent cells of passages 20-30. Dulbecco's modified Eagle's medium (DMEM-F/12), fetal bovine serum, penicillin-streptomycin and L-glutamine were obtained from Gibco-BRL (Invitrogen Inc., Carlsbad, Calif.). Cell culture flasks (T-75 cm^2) and plates were purchased from Corning Inc., (Corning, N.Y.). To investigate the uptake of particles, ARPE-19 cells between 20-30 passages were cultured in 24-well plates until confluency. […] Fluorescence intensity of the cell lysates was determined at an excitation and emission wavelength of 505 and 515 nm, respectively, for FluoSpheres®. […]

[3] = target: T1, LHRH-receptor (Bos taurus, UniProt P32236); test: Receptor binding assays (kinetic, saturation, competition) with 125I-deslorelin in bovine pituitary and nasal tissue homogenates; details: 4° C.; remained stable until 4 hr
T1 construct: The tissue homogenate was then centrifuged at 15000 g for 15 min at 4° C. to separate the crude membrane from the buffer; from tissue; host or cells: bovine nasal mucosa (MTA, MTP, ITP regions) and bovine pituitary, crude membrane homogenates
T1 sequence (P32236 1-328): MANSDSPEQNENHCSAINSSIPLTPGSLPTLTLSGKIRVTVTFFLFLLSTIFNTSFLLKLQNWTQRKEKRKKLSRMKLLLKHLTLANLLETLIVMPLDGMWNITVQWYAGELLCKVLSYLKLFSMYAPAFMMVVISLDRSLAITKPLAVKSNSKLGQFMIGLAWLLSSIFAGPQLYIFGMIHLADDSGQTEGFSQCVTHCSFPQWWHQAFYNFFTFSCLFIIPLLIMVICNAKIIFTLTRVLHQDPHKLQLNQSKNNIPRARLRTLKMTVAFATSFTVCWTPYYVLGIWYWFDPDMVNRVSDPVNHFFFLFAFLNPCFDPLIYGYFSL
Procedure: Radioactivity was measured in the pellet using a Perkin-Elmer γ-counter.
Reprod. […] Reprod. […] Radioactivity was measured in the pellet using a Perkin-Elmer γ-counter. […] The experiment was repeated three times.
Competition Studies: To determine the amount of unlabelled deslorelin required to displace the radioactivity, competition studies were conducted. […] Assays were performed in triplicates. At the end of 4 hr, the incubation tubes were centrifuged at 10,000 g for 20 min at 4° C. to separate the bound fraction. Radioactivity was measured in the pellet using a Perkin-Elmer γ-counter. The same controls as in the kinetic and saturation studies were used. The experiment was repeated three times.

| time at which binding reached a maximum [3] [h] | Substance | Zeta potential [1] [mV] | Effective diameter ([1]; 1:1000 dilution in filtered deionized water) [nm] | percentage uptake at 3 h by ARPE-19 cells [2] [%] |
| --- | --- | --- | --- | --- |
| – | Transferrin-PLGA: transferrin conjugated nile red loaded PLGA nanoparticles | −17.94 ± 1.5 | 385.8 ± 4.6 | 3.32±0.1 |
| 1.5 | ^125I-deslorelin: I^125 labeled deslorelin radioligand (EHWSYWLRP; D-residues; non-natural residues) | – | – | – |
